Experimental data published in US20250115663A1 (CELLDEX THERAPEUTICS, published 2025).

Columns and labels:
[1] = molecular target: T1, kappa-sCD40(1-94)-Flag point mutant T35E (human, UniProt P25942 21-114); test: ELISA, mutated kappa-sCD40(1-94)-Flag captured on anti-Flag antibody, detection anti-human IgG Fc-HRP; the concentration axis is taken as that of 3C3
T1 construct: not shown: N-terminal human kappa light chain; C-terminal Flag tag
T1 chain: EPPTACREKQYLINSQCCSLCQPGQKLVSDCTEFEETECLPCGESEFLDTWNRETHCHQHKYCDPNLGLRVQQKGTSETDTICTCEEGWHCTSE
Experimental: (§1) 1 μg/ml of purified kappa-sCD40-Flag fusion proteins or CHO cell supernatants containing the sCD40 fusion proteins were captured to microtiter plates that were pre-coated with 5 μg/ml mouse anti-Flag antibody (Sigma) in PBS and blocked with 5% bovine serum albumin in PBS. Following incubation with the CD40 antibody, the microplates were washed with PBS/Tween, and incubated with a goat anti-human IgG Fc polyclonal reagent conjugated to horseradish peroxidase. After washing, the plates were developed with HRP substrate, and analyzed at OD 450-650 using a microtiter plate reader. An ELISA with a goat anti-human IgG Fab2-HRP to measure kappa chain binding was carried out in parallel to validate the sCD40 fusion protein expression from different transfections.

[2] = molecular target: T2, kappa-sCD40(1-94)-Flag point mutant P3S (human, UniProt P25942 21-114); test: ELISA, kappa-sCD40-Flag fusion (~2 ug/ml) captured on anti-Flag, anti-human IgG Fc-HRP
T2 construct: not shown: N-terminal human kappa light chain; C-terminal Flag tag
T2 chain: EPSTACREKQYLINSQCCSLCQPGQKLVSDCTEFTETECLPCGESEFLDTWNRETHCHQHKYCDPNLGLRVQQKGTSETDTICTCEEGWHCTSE
Experimental: as §1, with “containing” for “1 μg/ml of purified kappa-sCD40-Flag fusion proteins or CHO cell supernatants containing”

[3] = molecular target: T3, kappa-sCD40(1-94)-Flag point mutant A5T (human, UniProt P25942 21-114); test: as above
T3 construct: not shown: N-terminal human kappa light chain; C-terminal Flag tag
T3 chain: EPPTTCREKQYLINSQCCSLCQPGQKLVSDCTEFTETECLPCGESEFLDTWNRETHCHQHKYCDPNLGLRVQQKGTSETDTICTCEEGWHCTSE
Experimental: as §1, with “containing” for “1 μg/ml of purified kappa-sCD40-Flag fusion proteins or CHO cell supernatants containing”

[4] = molecular target: T4, kappa-sCD40(1-94)-Flag point mutant E1G (human, UniProt P25942 22-114); test: as above
T4 construct: not shown: N-terminal human kappa light chain; C-terminal Flag tag
Experimental: as §1, with “containing” for “1 μg/ml of purified kappa-sCD40-Flag fusion proteins or CHO cell supernatants containing”

[5] = molecular target: T1, kappa-sCD40(1-94)-Flag point mutant T35E; test: as above
Experimental: as §1, with “containing” for “1 μg/ml of purified kappa-sCD40-Flag fusion proteins or CHO cell supernatants containing”

[6] = molecular target: T5, kappa-sCD40(1-94)-Flag point mutant T4V (human, UniProt P25942 21-114); test: as above
T5 construct: not shown: N-terminal human kappa light chain; C-terminal Flag tag
T5 chain: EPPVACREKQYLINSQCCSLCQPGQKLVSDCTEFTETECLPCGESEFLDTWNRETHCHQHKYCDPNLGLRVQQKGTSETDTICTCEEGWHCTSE
Experimental: as §1, with “containing” for “1 μg/ml of purified kappa-sCD40-Flag fusion proteins or CHO cell supernatants containing”

[7] = molecular target: T6, kappa-sCD40(1-94)-Flag mutant fragment D (multiple mutations of residues 33-36) (human, UniProt P25942 21-114); test: as above
T6 construct: The text says only multiple mutations of residues 33-36 (human to mouse differences); that mutant D carries exactly these is inferred; also called D (33-36); not shown: N-terminal human kappa light chain; C-terminal Flag tag
T6 chain: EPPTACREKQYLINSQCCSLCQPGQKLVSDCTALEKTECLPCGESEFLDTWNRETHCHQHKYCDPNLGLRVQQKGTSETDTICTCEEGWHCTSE
Experimental: as §1, with “containing” for “1 μg/ml of purified kappa-sCD40-Flag fusion proteins or CHO cell supernatants containing”

[8] = molecular target: T7, kappa-sCD40(1-94)-Flag point mutant E36K (human, UniProt P25942 21-114); test: as above
T7 construct: not shown: N-terminal human kappa light chain; C-terminal Flag tag
T7 chain: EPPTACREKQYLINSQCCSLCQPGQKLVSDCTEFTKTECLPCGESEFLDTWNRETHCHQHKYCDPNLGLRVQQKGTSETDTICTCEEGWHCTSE
Experimental: as §1, with “containing” for “1 μg/ml of purified kappa-sCD40-Flag fusion proteins or CHO cell supernatants containing”

[9] = molecular target: T8, kappa-sCD40(1-94)-Flag mutant fragment A (multiple mutations of residues 1-5) (human, UniProt P25942 26-114); test: as above
T8 construct: The text says only multiple mutations of residues 1-5 (human to mouse differences); that mutant A carries exactly these is inferred; also called A (1-5); not shown: N-terminal human kappa light chain; C-terminal Flag tag
Experimental: as §1, with “containing” for “1 μg/ml of purified kappa-sCD40-Flag fusion proteins or CHO cell supernatants containing”

[10] = molecular target: T9, kappa-sCD40(1-94)-Flag mutant fragment B (multiple mutations of residues 13-15); test: ELISA, kappa-sCD40-Flag fusion captured on anti-Flag, anti-human IgG Fc-HRP
T9 construct: also called B (13-15)
Experimental: as §1

[11] = molecular target: T10, kappa-sCD40(1-94)-Flag mutant fragment C (multiple mutations of residues 25, 26, 28 and 30); test: as above
T10 construct: also called C (25, 26, 28, 30)
Experimental: as §1

[12] = molecular target: T6, kappa-sCD40(1-94)-Flag mutant fragment …; test: as above
Experimental: as §1

[13] = molecular target: T8, kappa-sCD40(1-94)-Flag mutant fragment …; test: as above
Experimental: as §1

B1: anti-CD40 human monoclonal antibody 3C3 (antibody, human IgG2, kappa, V domains shown)
VH: QVQLVESGGGVVQPGRSLRLSCAGSGFIFSRYGMYWVRQAPGKGLEWVAVIWYDGSYKYYADSVKGRFTISRDNSKNTLYLQMNSLRAEDTAVYYCARESPWYYFDYWGQGTLVTVSS
VL: DIQMTQSPSSLSASVGDRVTITCRASQGISNYLAWYQQKPGKVPKLLIYAASTLQSGVPSRFSGSGSGTDFTLTISSLQPEDVATYYCQKYKSAPFTFGPGTKVDIKR
notes: Human IgG2, C-terminal lysine removed; also called anti-CD40 mAb 3C3; CD40 antibody 3C3
- EC50 (read off the curve) [1]: ~0.02 µg/mL
- Average OD [2]: 2.01 OD 450-650
- Average OD [3]: 1.13 OD 450-650
- Average OD [4]: 1.97 OD 450-650
- Average OD [5]: 2.07 OD 450-650
- Average OD [6]: 2.15 OD 450-650
- Average OD [7]: 0.124 OD 450-650
- Average OD [8]: 1.37 OD 450-650
- Average OD [9]: 0.167 OD 450-650
- Average OD [10]: 2.03 OD 450-650
- Average OD [11]: 1.49 OD 450-650
- Average OD [12]: 0.092 OD 450-650
- Average OD [13]: 0.189 OD 450-650
